*1 amine or outer side, *2 acyl side, *3 side chain or, on linkers, in order; H or OH if unused. Bridges are numbered along the chain shown (N, C = ends). Primed or numbered codes have the meaning given here. Where no end group is shown, it is not given here. [ ]: non-standard residue; d: D form. The star is where a group is joined. NOPO = NOPO chelator, O=C(CCP(=O)(O)CN1CCN(CP(=O)(O)CO)CCN(CP(=O)(O)CO)CC1)*; (dE)(AGLU) = D-glutamic acid bearing 1-amino-1-deoxy-D-glucitol; 2,6‑lutidylidene = 2Lut, Cys-Cys crosslink via 2,6-lutidylidene; APAc″ = 4-amino-1-carboxymethylpiperidine, NC1CCN(CC(=O)*)CC1; dE(AGLU) = D-glutamic acid bearing 1-amino-1-deoxy-D-glucitol; Pro(trans-4-NH2) = O=C([C@@H]1C[C@@H](N[*:3])CN1[*:1])[*:2]; DOTA = O=C(O)CN1CCN(CC(=O)O)CCN(CC(=O)*)CCN(CC(=O)O)CC1; NODAGA = O=C(O)CN1CCN(CC(=O)O)CCN(C(CCC(=O)*)C(=O)O)CC1; 2Lut = 2,6-lutidylidene bridge between two thiols; Trp(5-Br) = N[C@@H](Cc1c[nH]c2ccc(Br)cc12)C(=O)O; Trp(5-Cl) = N[C@@H](Cc1c[nH]c2ccc(Cl)cc12)C(=O)O; Pyridine(2,6-diCH2) = c1cc(C[*:1])nc(C[*:2])c1; APAc = 4-amino-1-carboxymethylpiperidine; mXylylene = c1cc(C[*:1])cc(C[*:2])c1; Glutaryl = O=C(CCCC(=O)[*:2])[*:1]; AGLU = 1-amino-1-deoxy-D-glucitol; Hyp = O=C(O)[C@@H]1C[C@@H](O)CN1; hCys = N[C@@H](CCS)C(=O)O; hSer = N[C@@H](CCO)C(=O)O; Ac5c = NC1(C(=O)O)CCCC1; Api = NC1(C(=O)O)CCNCC1; Dab = NCC[C@H](N)C(=O)O; Thp = NC1(C(=O)O)CCOCC1
B1: AGLU-Glutar-Hse-Trp-5Brw-Tap-Glu-leu-[Cys(2Lut)-Apc(DOTA)-Leu-Ile-Cys]-APAc-glu(AGLU)-NH2 (peptide)
peptide: {AGLU-Glutaryl}-[hSer]W[Trp(5-Br)][Pro(trans-4-NH2)]E[dL]C[Api](DOTA)LIC-{APAc-dE(AGLU)-NH2}
modifications: linker 7-11 via Pyridine(2,6-diCH2)
B2: Ac-Hse-Trp-5Clw-Hyp-Glu-leu-[Cys(2Lut)-Thp-Leu-Ile-Cys]-NH2 (peptide)
peptide: Ac-[hSer]W[Trp(5-Cl)][Hyp]E[dL]C[Thp]LIC-NH2
modifications: linker 7-11 via Pyridine(2,6-diCH2)
SMILES: CC[C@H](C)[C@@H]1NC(=O)[C@H](CC(C)C)NC(=O)C2(CCOCC2)NC(=O)[C@@H](NC(=O)[C@@H](CC(C)C)NC(=O)[C@H](CCC(=O)O)NC(=O)[C@@H]2C[C@@H](O)CN2C(=O)[C@H](Cc2c[nH]c3ccc(Cl)cc23)NC(=O)[C@H](Cc2c[nH]c3ccccc23)NC(=O)[C@H](CCO)NC(C)=O)CSCc2cccc(n2)CSC[C@@H](C(N)=O)NC1=O
B3: AGLU-Glutar-Asp-Trp-5Clw-Tap-Glu-leu-[Cys(2Lut)-Apc(NODAGA)-Leu-Ile-Cys]-APAc-glu(AGLU)-NH2 (peptide)
peptide: {AGLU-Glutaryl}-DW[Trp(5-Cl)][Pro(trans-4-NH2)]E[dL]C[Api](NODAGA)LIC-{APAc-dE(AGLU)-NH2}
modifications: linker 7-11 via Pyridine(2,6-diCH2)
B4: HO-Succinyl-Trp-5Clw-Pro-Glu-leu-[Cys(3MeBn)-Thp-Leu-Ile-Cys]-NH2 (peptide)
peptide: W[Trp(5-Cl)]PE[dL]C[Thp]LIC-NH2
modifications: linker 6-10 via mXylylene; not fully specified (N-terminus); printed as HO-Succinyl-Trp-5Clw-Pro-Glu-leu-[Cys(3MeBn)-Thp-Leu-Ile-Cys]-NH2
B5: AGLU-Glutar-APAc-Asp-Trp-5Clw-Hyp-Glu-leu-[Cys(2Lut)-Apc(DOTA)-Leu-Ile-Cys]-glu(AGLU)-NH2 (peptide)
peptide: {AGLU-Glutaryl-APAc″}-DW[Trp(5-Cl)][Hyp]E[dL]C[Api](DOTA)LIC-{dE(AGLU)-NH2}
modifications: linker 7-11 via Pyridine(2,6-diCH2)
B6: DOTA-glu(AGLU)-Asp-Trp-5Clw-Tap-Glu-leu-[Cys(2Lut)-Thp-Leu-Ile-Cys]-APAc-glu(AGLU)-NH2 (peptide)
peptide: {DOTA-dE(AGLU)}-DW[Trp(5-Cl)][Pro(trans-4-NH2)]E[dL]C[Thp]LIC-{APAc-dE(AGLU)-NH2}
modifications: linker 7-11 via Pyridine(2,6-diCH2)
B7: Ac-Asp-Trp-5Clw-Hyp-Glu-leu-[Hcy(2Lut)-Thp-Leu-Ile-Hcy]-NH2 (peptide)
peptide: Ac-DW[Trp(5-Cl)][Hyp]E[dL][hCys][Thp]LI[hCys]-NH2
modifications: linker 7-11 via Pyridine(2,6-diCH2)
B8: Ac-Asp-Trp-5Clw-Hyp-Asn-leu-[Cys(2Lut)-Thp-Leu-Ile-Cys]-NH2 (peptide)
peptide: Ac-DW[Trp(5-Cl)][Hyp]N[dL]C[Thp]LIC-NH2
modifications: linker 7-11 via Pyridine(2,6-diCH2)
B9: Ac-Asp-Trp-5Clw-Hyp-Glu-leu-[Cys(2Lut)-Eca-Leu-Ile-Cys]-NH2 (peptide)
peptide: Ac-DW[Trp(5-Cl)][Hyp]E[dL]C[Ac5c]LIC-NH2
modifications: linker 7-11 via Pyridine(2,6-diCH2)
B10: AGLU-Glutar-Asp-Trp-5Clw-Tap-Glu-leu-[Cys(2Lut)-Dab(DOTA)-Leu-Ile-Cys]-APAc-glu(AGLU)-NH2 (peptide)
peptide: {AGLU-Glutaryl}-DW[Trp(5-Cl)][Pro(trans-4-NH2)]E[dL]C[Dab](DOTA)LIC-{APAc-dE(AGLU)-NH2}
modifications: linker 7-11 via Pyridine(2,6-diCH2)
B11: AGLU-Glutar-Asp-Trp-5Clw-Tap-Glu-leu-[Cys(2Lut)-Lys(DOTA)-Leu-Ile-Cys]-APAc-glu(AGLU)-NH2 (peptide)
peptide: {AGLU-Glutaryl}-DW[Trp(5-Cl)][Pro(trans-4-NH2)]E[dL]CK(DOTA)LIC-{APAc-dE(AGLU)-NH2}
modifications: linker 7-11 via 2,6‑lutidylidene
B12: Ac-Asp-Trp-5Clw-Hyp-Gln-leu-[Cys(2Lut)-Thp-Leu-Ile-Cys]-NH2 (peptide)
peptide: Ac-DW[Trp(5-Cl)][Hyp]Q[dL]C[Thp]LIC-NH2
modifications: linker 7-11 via Pyridine(2,6-diCH2)
B13: DOTA-O2Oc-glu(AGLU)-Asp-Trp-5Clw-Tap-Glu-leu-[Cys(2Lut)-Thp-Leu-Ile-Cys]-APAc-glu(AGLU)-NH2 (peptide)
peptide: DW[Trp(5-Cl)][Pro(trans-4-NH2)]E[dL]C[Thp]LIC-{APAc-(dE)(AGLU)-NH2}
modifications: linker 7-11 via Pyridine(2,6-diCH2); not fully specified (N-terminus); printed as DOTA-O2Oc-glu(AGLU)-Asp-Trp-5Clw-Tap-Glu-leu-[Cys(2Lut)-Thp-Leu-Ile-Cys]-APAc-glu(AGLU)-NH2
B14: HO-Succinyl-Trp-5Clw-Tap-Glu-leu-[Cys(2Lut)-Apc(DOTA)-Leu-Ile-Cys]-APAc-glu(AGLU)-NH2 (peptide)
peptide: W[Trp(5-Cl)][Pro(trans-4-NH2)]E[dL]C[Api](DOTA)LIC-{APAc-dE(AGLU)-NH2}
modifications: linker 6-10 via 2Lut; not fully specified (N-terminus)
B15: Ac-Asp-Trp-5Clw-Hyp-Glu-leu-[Cys(2Lut)-Thp-Leu-Ile-Hcy]-NH2 (peptide)
peptide: Ac-DW[Trp(5-Cl)][Hyp]E[dL]C[Thp]LI[hCys]-NH2
modifications: linker 7-11 via Pyridine(2,6-diCH2)
B16: AGLU-Glutar-Asp-Trp-5Clw-Tap-Glu-leu-[Cys(2Lut)-Apc(NOPO)-Leu-Ile-Cys]-APAc-glu(AGLU)-NH2 (peptide)
peptide: {AGLU-Glutaryl}-DW[Trp(5-Cl)][Pro(trans-4-NH2)]E[dL]C[Api](NOPO)LIC-{APAc-dE(AGLU)-NH2}
modifications: linker 7-11 via Pyridine(2,6-diCH2)

Target: human Gastric Inhibitory Peptide Receptor (human) (UniProt P48546)
Sequence (P48546 22-466 limits assumed): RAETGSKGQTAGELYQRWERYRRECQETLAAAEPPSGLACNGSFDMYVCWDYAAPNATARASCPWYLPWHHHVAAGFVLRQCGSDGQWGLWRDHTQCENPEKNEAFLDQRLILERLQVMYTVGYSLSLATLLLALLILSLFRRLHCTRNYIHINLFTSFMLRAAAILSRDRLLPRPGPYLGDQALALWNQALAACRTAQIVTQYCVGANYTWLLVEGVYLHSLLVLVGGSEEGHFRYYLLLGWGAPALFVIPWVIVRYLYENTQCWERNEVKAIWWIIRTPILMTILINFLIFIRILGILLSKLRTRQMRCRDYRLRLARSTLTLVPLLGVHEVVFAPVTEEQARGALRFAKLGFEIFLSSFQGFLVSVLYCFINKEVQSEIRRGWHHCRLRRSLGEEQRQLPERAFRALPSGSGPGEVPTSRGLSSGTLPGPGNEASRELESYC
Test: FACS competition with GIP-057 on CHO-K1-hGIPR cells; pIC50 category A: >8.0

pIC50 [pic50]	Binder
> 8	B1
> 8	B2
> 8	B3
> 8	B4
> 8	B5
> 8	B6
> 8	B7
> 8	B8
> 8	B9
> 8	B10
> 8	B11
> 8	B12
> 8	B13
> 8	B14
> 8	B15
> 8	B16

Source: patent US20250296971A1, “GASTRIC INHIBITORY PEPTIDE RECEPTOR LIGANDS” (priority 2021, published 2025)
